Assay [1] concerns the target C*07:01/gp100479-487 multimer (human; mouse) (UniProt P01901). Put plainly: pHLA multimer staining of TILs after one peptide-specific stimulation with C*07:01-artificial APCs (day 14), flow cytometry. For orientation: Flow cytometry measures light scatter and fluorescence of single cells or particles in a stream.
Assay [2] shares this target. Kind of assay: pHLA multimer staining of TILs before stimulation (day 0), flow cytometry.
For assay [3], the target named is T1, gp100 peptide on HLA-C*07:01 (human).
T1 peptide: RYGSFSVTL
Kind of assay: multimer staining. The procedure:
T cells (1×10⁵) were incubated for 30 minutes at 37° C. in the presence of 50 nM dasatinib (LC laboratories). The cells were then washed and incubated with 5-10 μg/ml of multimer for 30 minutes at room temperature, and R-phycoerythrin-conjugated AffiniPure Fab fragment goat anti-mouse IgG1 (Jackson ImmunoResearch Laboratories) was added for 15 minutes at 4° C. Next, the cells were washed three times and costained with an anti-CD8 mAb for 15 minutes at 4° C. Dead cells were finally discriminated using the LIVE/DEAD Fixable Dead Cell Stain kit.

We go through two molecules from patent publication US20220168346A1 (published 2022).

Turning to C*07:01+ melanoma TILs, the percentage of multimer+ cells in CD8+ T cells in assay [1] was 1.2%; in assay [2], 0.14%.

B1: C*07:01/gp100479-487 TCR (TCR, V domains shown)
Valpha: DQQVKQNSPSLSVQEGRISILNCDYTNSMFDYFLWYKKYPAEGPTFLISISSIKDKNEDGRFTVFLNKSAKHLSLHIVPSQPGDSAVYFCAANSGNTPLVFGKGTRLSVIA
Vbeta: EPEVTQTPSHQVTQMGQEVILRCVPISNHLYFYWYRQILGQKVEFLVSFYNNEISEKSEIFDDQFSVERPDGSNFTLKIRSTKLEDSAMYFCASSLMGGGNTIYFGEGSWLTVV
For the molecule B1, the binding result in assay [3] was “recognises”.
